Measurements taken from the RNAGym collection of RNA variant scans (doi:10.1021/acssynbio.7b00057).

B1: Pistol ribozyme (parent)
chain: GGGUCGUUGUUCCAUAAUCGCGUGGAUAUGGCACGCAAGUUUCUACCGGGCACCGUAAAUGUCCGACUGGAGCCGUUCGGGCGGCUAUAAACAGACCUCAGGCCCGAAGCGUGGCGGCACCUGCCGCCGGUGGUAAAAAAGAUCGGAAGAGCACACGUCU

Variants of: B1
Assay: aptazyme ON/OFF ratio, guanine; higher = stronger switching; co-transcriptional cleavage with and without guanine

Variant | aptazyme ON/OFF ratio
GGGUCGUAGCUAAAUAAUCGCGUGGAUAUGGCACGCAAGUUUCUACCGGGCACCGUAAAUGUCCGACUGGAGCCGUUCGGGCGGCUAUAAACAGACCUCAGGCCCGAAGCGUGGCGGCACCUGCCGCCGGUGGUAAAAAAGAUCGGAAGAGCACACGUCU [U8A U10C C12A C13A] | 1.23
GGGUCGUAGCUAGAUAAUCGCGUGGAUAUGGCACGCAAGUUUCUACCGGGCACCGUAAAUGUCCGACUGGAGCCGUUCGGGCGGCUAUAAACAGACCUCAGGCCCGAAGCGUGGCGGCACCUGCCGCCGGUGGUAAAAAAGAUCGGAAGAGCACACGUCU [U8A U10C C12A C13G] | 1.11
GGGUCGUAGAGUCAUAAUCGCGUGGAUAUGGCACGCAAGUUUCUACCGGGCACCGUAAAUGUCCGACUGGAGCCGUUCGGGCGGCUAUAAACAGACCUCAGGCCCGAAGCGUGGCGGCACCUGCCGCCGGUGGUAAAAAAGAUCGGAAGAGCACACGUCU [U8A U10A U11G C12U] | 1.52
GGGUCGUAGAGGCAUAAUCGCGUGGAUAUGGCACGCAAGUUUCUACCGGGCACCGUAAAUGUCCGACUGGAGCCGUUCGGGCGGCUAUAAACAGACCUCAGGCCCGAAGCGUGGCGGCACCUGCCGCCGGUGGUAAAAAAGAUCGGAAGAGCACACGUCU [U8A U10A U11G C12G] | 1.36
GGGUCGUAGAGACAUAAUCGCGUGGAUAUGGCACGCAAGUUUCUACCGGGCACCGUAAAUGUCCGACUGGAGCCGUUCGGGCGGCUAUAAACAGACCUCAGGCCCGAAGCGUGGCGGCACCUGCCGCCGGUGGUAAAAAAGAUCGGAAGAGCACACGUCU [U8A U10A U11G C12A] | 1.12
GGGUCGUAGAGAGAUAAUCGCGUGGAUAUGGCACGCAAGUUUCUACCGGGCACCGUAAAUGUCCGACUGGAGCCGUUCGGGCGGCUAUAAACAGACCUCAGGCCCGAAGCGUGGCGGCACCUGCCGCCGGUGGUAAAAAAGAUCGGAAGAGCACACGUCU [U8A U10A U11G C12A C13G] | 1.3
GGGUCGUAGAGAUAUAAUCGCGUGGAUAUGGCACGCAAGUUUCUACCGGGCACCGUAAAUGUCCGACUGGAGCCGUUCGGGCGGCUAUAAACAGACCUCAGGCCCGAAGCGUGGCGGCACCUGCCGCCGGUGGUAAAAAAGAUCGGAAGAGCACACGUCU [U8A U10A U11G C12A C13U] | 1.07
GGGUCGUAGAGAAAUAAUCGCGUGGAUAUGGCACGCAAGUUUCUACCGGGCACCGUAAAUGUCCGACUGGAGCCGUUCGGGCGGCUAUAAACAGACCUCAGGCCCGAAGCGUGGCGGCACCUGCCGCCGGUGGUAAAAAAGAUCGGAAGAGCACACGUCU [U8A U10A U11G C12A C13A] | 1.13
GGGUCGUAGACUAAUAAUCGCGUGGAUAUGGCACGCAAGUUUCUACCGGGCACCGUAAAUGUCCGACUGGAGCCGUUCGGGCGGCUAUAAACAGACCUCAGGCCCGAAGCGUGGCGGCACCUGCCGCCGGUGGUAAAAAAGAUCGGAAGAGCACACGUCU [U8A U10A U11C C12U C13A] | 1.08
GGGUCGUAGACUUAUAAUCGCGUGGAUAUGGCACGCAAGUUUCUACCGGGCACCGUAAAUGUCCGACUGGAGCCGUUCGGGCGGCUAUAAACAGACCUCAGGCCCGAAGCGUGGCGGCACCUGCCGCCGGUGGUAAAAAAGAUCGGAAGAGCACACGUCU [U8A U10A U11C C12U C13U] | 1.06
GGGUCGUAGACUGAUAAUCGCGUGGAUAUGGCACGCAAGUUUCUACCGGGCACCGUAAAUGUCCGACUGGAGCCGUUCGGGCGGCUAUAAACAGACCUCAGGCCCGAAGCGUGGCGGCACCUGCCGCCGGUGGUAAAAAAGAUCGGAAGAGCACACGUCU [U8A U10A U11C C12U C13G] | 1.09
GGGUCGUAGCUACAUAAUCGCGUGGAUAUGGCACGCAAGUUUCUACCGGGCACCGUAAAUGUCCGACUGGAGCCGUUCGGGCGGCUAUAAACAGACCUCAGGCCCGAAGCGUGGCGGCACCUGCCGCCGGUGGUAAAAAAGAUCGGAAGAGCACACGUCU [U8A U10C C12A] | 1.31
GGGUCGUAGCUCCAUAAUCGCGUGGAUAUGGCACGCAAGUUUCUACCGGGCACCGUAAAUGUCCGACUGGAGCCGUUCGGGCGGCUAUAAACAGACCUCAGGCCCGAAGCGUGGCGGCACCUGCCGCCGGUGGUAAAAAAGAUCGGAAGAGCACACGUCU [U8A U10C] | 4.03
GGGUCGUAGAGCAAUAAUCGCGUGGAUAUGGCACGCAAGUUUCUACCGGGCACCGUAAAUGUCCGACUGGAGCCGUUCGGGCGGCUAUAAACAGACCUCAGGCCCGAAGCGUGGCGGCACCUGCCGCCGGUGGUAAAAAAGAUCGGAAGAGCACACGUCU [U8A U10A U11G C13A] | 1.18
GGGUCGUAGAGCUAUAAUCGCGUGGAUAUGGCACGCAAGUUUCUACCGGGCACCGUAAAUGUCCGACUGGAGCCGUUCGGGCGGCUAUAAACAGACCUCAGGCCCGAAGCGUGGCGGCACCUGCCGCCGGUGGUAAAAAAGAUCGGAAGAGCACACGUCU [U8A U10A U11G C13U] | 1.13
GGGUCGUAGAGCGAUAAUCGCGUGGAUAUGGCACGCAAGUUUCUACCGGGCACCGUAAAUGUCCGACUGGAGCCGUUCGGGCGGCUAUAAACAGACCUCAGGCCCGAAGCGUGGCGGCACCUGCCGCCGGUGGUAAAAAAGAUCGGAAGAGCACACGUCU [U8A U10A U11G C13G] | 1.14
GGGUCGUAGACGCAUAAUCGCGUGGAUAUGGCACGCAAGUUUCUACCGGGCACCGUAAAUGUCCGACUGGAGCCGUUCGGGCGGCUAUAAACAGACCUCAGGCCCGAAGCGUGGCGGCACCUGCCGCCGGUGGUAAAAAAGAUCGGAAGAGCACACGUCU [U8A U10A U11C C12G] | 1.08
GGGUCGUAGACACAUAAUCGCGUGGAUAUGGCACGCAAGUUUCUACCGGGCACCGUAAAUGUCCGACUGGAGCCGUUCGGGCGGCUAUAAACAGACCUCAGGCCCGAAGCGUGGCGGCACCUGCCGCCGGUGGUAAAAAAGAUCGGAAGAGCACACGUCU [U8A U10A U11C C12A] | 1.09

Variant | aptazyme ON/OFF ratio
GGGUCGUAGACUCAUAAUCGCGUGGAUAUGGCACGCAAGUUUCUACCGGGCACCGUAAAUGUCCGACUGGAGCCGUUCGGGCGGCUAUAAACAGACCUCAGGCCCGAAGCGUGGCGGCACCUGCCGCCGGUGGUAAAAAAGAUCGGAAGAGCACACGUCU [U8A U10A U11C C12U] | 1.01
GGGUCGUAGAGGAAUAAUCGCGUGGAUAUGGCACGCAAGUUUCUACCGGGCACCGUAAAUGUCCGACUGGAGCCGUUCGGGCGGCUAUAAACAGACCUCAGGCCCGAAGCGUGGCGGCACCUGCCGCCGGUGGUAAAAAAGAUCGGAAGAGCACACGUCU [U8A U10A U11G C12G C13A] | 1.06
GGGUCGUAGAGGUAUAAUCGCGUGGAUAUGGCACGCAAGUUUCUACCGGGCACCGUAAAUGUCCGACUGGAGCCGUUCGGGCGGCUAUAAACAGACCUCAGGCCCGAAGCGUGGCGGCACCUGCCGCCGGUGGUAAAAAAGAUCGGAAGAGCACACGUCU [U8A U10A U11G C12G C13U] | 1.27
GGGUCGUAGAGGGAUAAUCGCGUGGAUAUGGCACGCAAGUUUCUACCGGGCACCGUAAAUGUCCGACUGGAGCCGUUCGGGCGGCUAUAAACAGACCUCAGGCCCGAAGCGUGGCGGCACCUGCCGCCGGUGGUAAAAAAGAUCGGAAGAGCACACGUCU [U8A U10A U11G C12G C13G] | 1.15
GGGUCGUAGACGAAUAAUCGCGUGGAUAUGGCACGCAAGUUUCUACCGGGCACCGUAAAUGUCCGACUGGAGCCGUUCGGGCGGCUAUAAACAGACCUCAGGCCCGAAGCGUGGCGGCACCUGCCGCCGGUGGUAAAAAAGAUCGGAAGAGCACACGUCU [U8A U10A U11C C12G C13A] | 1.1
GGGUCGUAGACGUAUAAUCGCGUGGAUAUGGCACGCAAGUUUCUACCGGGCACCGUAAAUGUCCGACUGGAGCCGUUCGGGCGGCUAUAAACAGACCUCAGGCCCGAAGCGUGGCGGCACCUGCCGCCGGUGGUAAAAAAGAUCGGAAGAGCACACGUCU [U8A U10A U11C C12G C13U] | 1.16
GGGUCGUAGACGGAUAAUCGCGUGGAUAUGGCACGCAAGUUUCUACCGGGCACCGUAAAUGUCCGACUGGAGCCGUUCGGGCGGCUAUAAACAGACCUCAGGCCCGAAGCGUGGCGGCACCUGCCGCCGGUGGUAAAAAAGAUCGGAAGAGCACACGUCU [U8A U10A U11C C12G C13G] | 1.27
GGGUCGUAGACCGAUAAUCGCGUGGAUAUGGCACGCAAGUUUCUACCGGGCACCGUAAAUGUCCGACUGGAGCCGUUCGGGCGGCUAUAAACAGACCUCAGGCCCGAAGCGUGGCGGCACCUGCCGCCGGUGGUAAAAAAGAUCGGAAGAGCACACGUCU [U8A U10A U11C C13G] | 1.02
GGGUCGUAGACCUAUAAUCGCGUGGAUAUGGCACGCAAGUUUCUACCGGGCACCGUAAAUGUCCGACUGGAGCCGUUCGGGCGGCUAUAAACAGACCUCAGGCCCGAAGCGUGGCGGCACCUGCCGCCGGUGGUAAAAAAGAUCGGAAGAGCACACGUCU [U8A U10A U11C C13U] | 1.04
GGGUCGUAGACCAAUAAUCGCGUGGAUAUGGCACGCAAGUUUCUACCGGGCACCGUAAAUGUCCGACUGGAGCCGUUCGGGCGGCUAUAAACAGACCUCAGGCCCGAAGCGUGGCGGCACCUGCCGCCGGUGGUAAAAAAGAUCGGAAGAGCACACGUCU [U8A U10A U11C C13A] | 1.03
GGGUCGUAGAGUUAUAAUCGCGUGGAUAUGGCACGCAAGUUUCUACCGGGCACCGUAAAUGUCCGACUGGAGCCGUUCGGGCGGCUAUAAACAGACCUCAGGCCCGAAGCGUGGCGGCACCUGCCGCCGGUGGUAAAAAAGAUCGGAAGAGCACACGUCU [U8A U10A U11G C12U C13U] | 1.4
GGGUCGUAGAGUGAUAAUCGCGUGGAUAUGGCACGCAAGUUUCUACCGGGCACCGUAAAUGUCCGACUGGAGCCGUUCGGGCGGCUAUAAACAGACCUCAGGCCCGAAGCGUGGCGGCACCUGCCGCCGGUGGUAAAAAAGAUCGGAAGAGCACACGUCU [U8A U10A U11G C12U C13G] | 1.45
GGGUCGUAGAGUAAUAAUCGCGUGGAUAUGGCACGCAAGUUUCUACCGGGCACCGUAAAUGUCCGACUGGAGCCGUUCGGGCGGCUAUAAACAGACCUCAGGCCCGAAGCGUGGCGGCACCUGCCGCCGGUGGUAAAAAAGAUCGGAAGAGCACACGUCU [U8A U10A U11G C12U C13A] | 1.2
GGGUCGUAGAGCCAUAAUCGCGUGGAUAUGGCACGCAAGUUUCUACCGGGCACCGUAAAUGUCCGACUGGAGCCGUUCGGGCGGCUAUAAACAGACCUCAGGCCCGAAGCGUGGCGGCACCUGCCGCCGGUGGUAAAAAAGAUCGGAAGAGCACACGUCU [U8A U10A U11G] | 1.17
GGGUCGUAGACCCAUAAUCGCGUGGAUAUGGCACGCAAGUUUCUACCGGGCACCGUAAAUGUCCGACUGGAGCCGUUCGGGCGGCUAUAAACAGACCUCAGGCCCGAAGCGUGGCGGCACCUGCCGCCGGUGGUAAAAAAGAUCGGAAGAGCACACGUCU [U8A U10A U11C] | 1
GGGUCGUAGACAGAUAAUCGCGUGGAUAUGGCACGCAAGUUUCUACCGGGCACCGUAAAUGUCCGACUGGAGCCGUUCGGGCGGCUAUAAACAGACCUCAGGCCCGAAGCGUGGCGGCACCUGCCGCCGGUGGUAAAAAAGAUCGGAAGAGCACACGUCU [U8A U10A U11C C12A C13G] | 1.06
GGGUCGUAGACAUAUAAUCGCGUGGAUAUGGCACGCAAGUUUCUACCGGGCACCGUAAAUGUCCGACUGGAGCCGUUCGGGCGGCUAUAAACAGACCUCAGGCCCGAAGCGUGGCGGCACCUGCCGCCGGUGGUAAAAAAGAUCGGAAGAGCACACGUCU [U8A U10A U11C C12A C13U] | 1.19
GGGUCGUAGACAAAUAAUCGCGUGGAUAUGGCACGCAAGUUUCUACCGGGCACCGUAAAUGUCCGACUGGAGCCGUUCGGGCGGCUAUAAACAGACCUCAGGCCCGAAGCGUGGCGGCACCUGCCGCCGGUGGUAAAAAAGAUCGGAAGAGCACACGUCU [U8A U10A U11C C12A C13A] | 1.08
